Literature values in paper PMC8790524.

Tests used:
[1] = molecular target: IL12Rβ1 ECD (Homo sapiens) (UniProt P42701); test: ITC
[2] = molecular target: IL23R ECD (Homo sapiens) (UniProt Q5VWK5); test: ITC
IL23R ECD (Homo sapiens), sequence (Q5VWK5 24-355): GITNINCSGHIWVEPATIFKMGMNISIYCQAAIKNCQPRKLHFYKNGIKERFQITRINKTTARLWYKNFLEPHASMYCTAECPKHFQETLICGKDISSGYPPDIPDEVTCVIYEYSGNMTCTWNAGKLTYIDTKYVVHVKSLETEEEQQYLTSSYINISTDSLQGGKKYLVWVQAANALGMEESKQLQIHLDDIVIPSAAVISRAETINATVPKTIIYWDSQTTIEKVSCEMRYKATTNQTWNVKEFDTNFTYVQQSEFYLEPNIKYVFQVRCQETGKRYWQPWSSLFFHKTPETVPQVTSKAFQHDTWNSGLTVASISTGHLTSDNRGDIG

IL-23, sequence (Q9NPF7 20-189): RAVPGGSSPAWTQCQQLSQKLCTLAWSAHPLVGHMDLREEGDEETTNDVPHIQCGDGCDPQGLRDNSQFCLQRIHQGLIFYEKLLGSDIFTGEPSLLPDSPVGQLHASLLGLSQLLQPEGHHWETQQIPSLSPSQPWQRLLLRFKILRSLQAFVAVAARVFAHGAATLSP
IL-23, sequence (P29460 23-328, further chain): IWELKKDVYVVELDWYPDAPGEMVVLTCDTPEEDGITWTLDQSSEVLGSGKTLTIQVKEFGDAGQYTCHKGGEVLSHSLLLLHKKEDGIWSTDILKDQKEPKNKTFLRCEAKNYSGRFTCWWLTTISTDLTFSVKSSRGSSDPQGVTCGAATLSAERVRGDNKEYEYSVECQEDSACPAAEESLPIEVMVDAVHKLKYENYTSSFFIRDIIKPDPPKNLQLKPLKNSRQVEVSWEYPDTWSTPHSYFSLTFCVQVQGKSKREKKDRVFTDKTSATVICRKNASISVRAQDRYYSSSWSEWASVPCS

Kd [1]: 2 µM
Kd [2]: 0.044 µM
Substance: IL-23 (from UniProt Q9NPF7)
